Results on six molecules are retold here after patent US20240360201A1 (BIOCYTOGEN PHARMACEUTICALS BEIJING, published 2024).

For assay [1], the target named is T1, 6×Histidine-tagged human PD-L1 protein (hPDL1-His) (human, UniProt Q9NZQ7 19-238).
T1 construct: also called hPL1-His; His-tagged human PD-L1
Briefly: SPR Biacore T200; binder captured on protein A chip, target as analyte. In general terms: In SPR one partner is held on a chip, and binding of the other changes the refractive index at the surface.

Assay [2] concerns the target T1, 6×Histidine-tagged human PD-L1 protein …. The description is as above. The source holds these as a separate data set.
Assay [3] shares this target. Briefly: SPR Biacore T200; binder captured on protein A chip, hPL1-His 1.5625-200 nM as analyte. On the procedure: Dissociation was monitored for 400 seconds. The chip was regenerated after the last injection of each titration with Glycine (pH 2.0, 30 μL/min for 12 seconds). As a person of ordinary skill in the art would understand, the same method with appropriate adjustments for parameters (e.g., fusion protein concentration) was performed for each tested fusion protein.
Kinetic association rates (kon) and dissociation rates (koff) were obtained simultaneously by fitting the data globally to a 1:1 Langmuir binding model (Karlsson, R. Roos, H. Fagerstam, L. Petersson, B., 1994. Methods Enzymology 6. 99-110) using Biacore™ T200 Evaluation Software 3.0. Affinities were calculated from the quotient of the kinetic rate constants (KD=koff/kon). […] Non-specific effects were not observed.

Assay [4] concerns the target T2, His-tagged recombinant mouse IL12RB2 protein (mIL12R-B2-His) (mouse, UniProt P97378 24-637, limits assumed).
T2 construct: bought
T2 sequence (looked up): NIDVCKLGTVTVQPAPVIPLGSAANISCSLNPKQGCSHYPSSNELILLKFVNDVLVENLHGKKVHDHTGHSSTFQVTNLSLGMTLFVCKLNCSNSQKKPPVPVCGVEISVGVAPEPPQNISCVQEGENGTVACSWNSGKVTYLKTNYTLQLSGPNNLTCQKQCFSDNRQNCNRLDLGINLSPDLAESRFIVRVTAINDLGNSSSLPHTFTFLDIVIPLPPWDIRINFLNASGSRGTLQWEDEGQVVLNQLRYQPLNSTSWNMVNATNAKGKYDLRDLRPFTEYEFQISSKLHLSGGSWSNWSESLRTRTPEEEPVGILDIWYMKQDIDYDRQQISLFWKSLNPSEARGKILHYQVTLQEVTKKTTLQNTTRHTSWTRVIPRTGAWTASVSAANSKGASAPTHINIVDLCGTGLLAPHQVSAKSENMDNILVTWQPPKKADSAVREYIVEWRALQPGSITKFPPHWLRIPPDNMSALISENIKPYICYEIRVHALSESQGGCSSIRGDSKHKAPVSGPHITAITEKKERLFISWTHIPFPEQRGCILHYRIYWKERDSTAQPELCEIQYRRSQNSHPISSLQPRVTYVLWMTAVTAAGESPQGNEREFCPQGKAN
In words: SPR Biacore T200; binder captured on protein A chip, target as analyte.

Another assay has as its target T3, TGFb1 (Homo sapiens (Human), UniProt P01137 279-390, Active TGF-beta-1 is a disulfide-linked homodimer of this chain; one copy is given.).
T3 construct: also called TGFb1 protein
Briefly: SPR; binder as capture solution, TGFb1 as analyte.

Usually Kd stands for the constant that tells how readily two partners part at equilibrium. By koff is commonly meant the rate constant with which the complex falls apart. For orientation: kon means the rate constant with which the complex forms.

T3 sequence (P01137 279-390 limits assumed): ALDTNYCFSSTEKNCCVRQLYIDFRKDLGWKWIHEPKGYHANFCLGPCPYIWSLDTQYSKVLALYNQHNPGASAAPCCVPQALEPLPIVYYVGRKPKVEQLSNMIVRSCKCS
T1 sequence (Q9NZQ7 19-238 limits assumed): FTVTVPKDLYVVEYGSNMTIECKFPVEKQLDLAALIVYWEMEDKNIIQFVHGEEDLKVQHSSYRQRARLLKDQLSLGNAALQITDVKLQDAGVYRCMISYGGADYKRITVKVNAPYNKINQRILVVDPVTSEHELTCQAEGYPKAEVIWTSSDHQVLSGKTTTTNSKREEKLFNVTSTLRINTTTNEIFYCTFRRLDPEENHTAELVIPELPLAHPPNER

B1: PDL1-3F2 (antibody, human IgG1, kappa)
heavy: not shown
light: DIVLTQSPDFQSVTPKEKVTITCRASQSISNNLHWYQQKPDESPKLLIKYASQSISGIPSRFSGSGSGTDFTLTINSVEAEDFAMYFCQQSKSWPFTFGQGTRLEIKRTVAAPSVFIFPPSDEQLKSGTASVVCLLNNFYPREAKVQWKVDNALQSGNSQESVTEQDSKDSTYSLSSTLTLSKADYEKHKVYACEVTHQGLSSPVTKSFNRGEC
notes: also called PDL1-3F2-IgG1; PDL1-3F2 IgG1
For B1, in assay [1], the Kd is 372 pM, the koff worked out at 0.000652 s⁻¹ and the kon is 1.75e+06 M⁻¹ s⁻¹. Moreover, in assay [2], binding was characterised by a dissociation constant (Kd) of 372 pM, the koff was determined as 0.000652 s⁻¹ and the kon was determined as 1.75e+06 M⁻¹ s⁻¹. In assay [3], binding was put at a Kd of 559 pM, the koff was 0.0013 s⁻¹ and the kon came to 2.32e+06 M⁻¹ s⁻¹.

B2: 3F2-mIL12-3A (antibody, IgG1)
heavy: QVQLQESGPGLVKPSETLSLTCTVSGYSITSGYNWHWIRQFPGNGLEWMGYIHHSSITNYNPSLKSRITISRDTSKNQFSLKLSSVTAADTATYYCAREGYDYDWFAYWGQGTLVTVSSASTKGPSVFPLAPSSKSTSGGTAALGCLVKDYFPEPVTVSWNSGALTSGVHTFPAVLQSSGLYSLSSVVTVPSSSLGTQTYICNVNHKPSNTKVDKKVEPKSCDKTHTCPPCPAPELLGGPSVFLFPPKPKDTLMISRTPEVTCVVVDVSHEDPEVKFNWYVDGVEVHNAKTKPREEQYNSTYRVVSVLTVLHQDWLNGKEYKCKVSNKALPAPIEKTISKAKGQPREPQVYTLPPSRDEGGGGSGGGGSVIPVSGPARCLSQSRNLLKTTDDMVKTAREKLKHYSCTAEDIDHEDITRDQTSTLKTCLPLELHKNESCLATRETSSTTRGSCLPPQKTSLMMTLCLGSIYEDLKMYQTEFQAINAALQNHNHQQIILDKGMLVAIDELMQSLNHNGETLRQKPPVGEADPYRVKMKLCILLHAFSTRVVTINRVMGYLSSAGGGGSGGGGSVSLTCLVKGFYPSDIAVEWESNGQPENNYKTTPPVLDSDGSFFLYSKLTVDKSRWQQGNVFSCSVMHEALHNHYTQKSLSLSPGK
light: DIVLTQSPDFQSVTPKEKVTITCRASQSISNNLHWYQQKPDESPKLLIKYASQSISGIPSRFSGSGSGTDFTLTINSVEAEDFAMYFCQQSKSWPFTFGQGTRLEIKRTVAAPSVFIFPPSDEQLKSGTASVVCLLNNFYPREAKVQWKVDNALQSGNSQESVTEQDSKDSTYSLSSTLTLSKADYEKHKVYACEVTHQGLSSPVTKSFNRGEC
chain: MWELEKDVYVVEVDWTPDAPGETVNLTCDTPEEDDITWTSDQRHGVIGSGKTLTITVKEFLDAGQYTCHKGGETLSHSHLLLHKKENGIWSTEILKNFKNKTFLKCEAPNYSGRFTCSWLVQRNMDLKFNIKSSSSSPDSRAVTCGMASLSAEKVTLDQRDYEKYSVSCQEDVTCPTAEETLPIELALEARQQNKYENYSTSFFIRDIIKPDPPKNLQMKPLKNSQVEVSWEYPDSWSTPHSYFSLKFFVRIQRKKEKMKETEEGCNQKGAFLVEKTSTEVQCKGGNVCVQAQDRYYNSSCSKWACVPCRVRS
notes: IgG1; IL12b co-expressed; also called 3F2-mIL12-3A-IgG1
Turning to B2, in assay [4], the Kd was 58500 pM, the koff was 0.00335 s⁻¹ and the kon turned out to be 57300 M⁻¹ s⁻¹. In assay [3], this molecule showed a Kd of 382 pM, a koff of 0.000952 s⁻¹ and a kon of 2.49e+06 M⁻¹ s⁻¹.

B3: 3F2-hIL21-3A-mIFNa4 (antibody, IgG1)
heavy: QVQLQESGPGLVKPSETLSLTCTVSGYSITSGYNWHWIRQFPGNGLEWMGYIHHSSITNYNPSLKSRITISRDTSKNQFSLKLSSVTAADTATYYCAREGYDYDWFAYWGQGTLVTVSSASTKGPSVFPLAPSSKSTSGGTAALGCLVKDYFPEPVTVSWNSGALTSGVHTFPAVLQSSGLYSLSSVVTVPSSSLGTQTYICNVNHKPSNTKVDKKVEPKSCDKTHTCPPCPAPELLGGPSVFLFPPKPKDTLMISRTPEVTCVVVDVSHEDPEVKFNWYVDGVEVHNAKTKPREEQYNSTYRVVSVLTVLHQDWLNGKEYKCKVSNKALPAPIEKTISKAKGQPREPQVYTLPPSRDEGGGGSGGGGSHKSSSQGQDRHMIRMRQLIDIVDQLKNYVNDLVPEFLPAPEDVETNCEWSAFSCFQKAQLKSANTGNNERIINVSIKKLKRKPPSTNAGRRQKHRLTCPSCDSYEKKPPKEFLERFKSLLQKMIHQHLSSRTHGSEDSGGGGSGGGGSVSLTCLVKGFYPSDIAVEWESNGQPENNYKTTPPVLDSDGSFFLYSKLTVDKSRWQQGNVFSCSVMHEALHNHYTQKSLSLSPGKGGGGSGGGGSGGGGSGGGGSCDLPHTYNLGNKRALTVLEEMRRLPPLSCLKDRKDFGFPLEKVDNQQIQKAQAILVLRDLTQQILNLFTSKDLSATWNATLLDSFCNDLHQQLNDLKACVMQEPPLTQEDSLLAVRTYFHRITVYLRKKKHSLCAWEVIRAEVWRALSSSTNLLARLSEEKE
light: DIVLTQSPDFQSVTPKEKVTITCRASQSISNNLHWYQQKPDESPKLLIKYASQSISGIPSRFSGSGSGTDFTLTINSVEAEDFAMYFCQQSKSWPFTFGQGTRLEIKRTVAAPSVFIFPPSDEQLKSGTASVVCLLNNFYPREAKVQWKVDNALQSGNSQESVTEQDSKDSTYSLSSTLTLSKADYEKHKVYACEVTHQGLSSPVTKSFNRGEC
notes: IgG1
In the case of B3, in assay [2], the Kd was determined as 613 pM, the koff was found to be 0.00072 s⁻¹ and the kon came out at 1.17e+06 M⁻¹ s⁻¹.

B4: 3F2-hIL21-3A (antibody, IgG1)
heavy: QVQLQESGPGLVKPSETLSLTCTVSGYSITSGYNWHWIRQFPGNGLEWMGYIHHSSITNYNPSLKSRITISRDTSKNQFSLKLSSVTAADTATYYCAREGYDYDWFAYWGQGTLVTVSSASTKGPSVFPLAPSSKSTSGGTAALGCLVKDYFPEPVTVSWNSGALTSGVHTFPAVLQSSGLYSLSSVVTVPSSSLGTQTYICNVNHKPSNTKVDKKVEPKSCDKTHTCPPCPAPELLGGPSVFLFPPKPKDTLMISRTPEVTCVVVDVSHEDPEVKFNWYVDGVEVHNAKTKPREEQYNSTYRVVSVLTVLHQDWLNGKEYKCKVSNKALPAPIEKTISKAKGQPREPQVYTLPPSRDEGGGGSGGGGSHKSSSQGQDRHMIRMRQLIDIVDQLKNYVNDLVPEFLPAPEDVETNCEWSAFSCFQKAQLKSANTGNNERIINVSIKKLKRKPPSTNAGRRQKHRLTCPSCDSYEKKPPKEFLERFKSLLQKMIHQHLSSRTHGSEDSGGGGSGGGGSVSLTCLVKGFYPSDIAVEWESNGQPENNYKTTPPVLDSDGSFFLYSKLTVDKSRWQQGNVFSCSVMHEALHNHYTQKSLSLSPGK
light: DIVLTQSPDFQSVTPKEKVTITCRASQSISNNLHWYQQKPDESPKLLIKYASQSISGIPSRFSGSGSGTDFTLTINSVEAEDFAMYFCQQSKSWPFTFGQGTRLEIKRTVAAPSVFIFPPSDEQLKSGTASVVCLLNNFYPREAKVQWKVDNALQSGNSQESVTEQDSKDSTYSLSSTLTLSKADYEKHKVYACEVTHQGLSSPVTKSFNRGEC
notes: IgG1
For the molecule B4, in assay [2], the Kd was 515 pM, the koff is 0.000613 s⁻¹ and the kon amounted to 1.19e+06 M⁻¹ s⁻¹.

B5: 3F2-mIL12-3A-mIFNa4 (antibody, IgG1)
heavy: QVQLQESGPGLVKPSETLSLTCTVSGYSITSGYNWHWIRQFPGNGLEWMGYIHHSSITNYNPSLKSRITISRDTSKNQFSLKLSSVTAADTATYYCAREGYDYDWFAYWGQGTLVTVSSASTKGPSVFPLAPSSKSTSGGTAALGCLVKDYFPEPVTVSWNSGALTSGVHTFPAVLQSSGLYSLSSVVTVPSSSLGTQTYICNVNHKPSNTKVDKKVEPKSCDKTHTCPPCPAPELLGGPSVFLFPPKPKDTLMISRTPEVTCVVVDVSHEDPEVKFNWYVDGVEVHNAKTKPREEQYNSTYRVVSVLTVLHQDWLNGKEYKCKVSNKALPAPIEKTISKAKGQPREPQVYTLPPSRDEGGGGSGGGGSVIPVSGPARCLSQSRNLLKTTDDMVKTAREKLKHYSCTAEDIDHEDITRDQTSTLKTCLPLELHKNESCLATRETSSTTRGSCLPPQKTSLMMTLCLGSIYEDLKMYQTEFQAINAALQNHNHQQIILDKGMLVAIDELMQSLNHNGETLRQKPPVGEADPYRVKMKLCILLHAFSTRVVTINRVMGYLSSAGGGGSGGGGSVSLTCLVKGFYPSDIAVEWESNGQPENNYKTTPPVLDSDGSFFLYSKLTVDKSRWQQGNVFSCSVMHEALHNHYTQKSLSLSPGKGGGGSGGGGSGGGGSGGGGSCDLPHTYNLGNKRALTVLEEMRRLPPLSCLKDRKDFGFPLEKVDNQQIQKAQAILVLRDLTQQILNLFTSKDLSATWNATLLDSFCNDLHQQLNDLKACVMQEPPLTQEDSLLAVRTYFHRITVYLRKKKHSLCAWEVIRAEVWRALSSSTNLLARLSEEKE
light: DIVLTQSPDFQSVTPKEKVTITCRASQSISNNLHWYQQKPDESPKLLIKYASQSISGIPSRFSGSGSGTDFTLTINSVEAEDFAMYFCQQSKSWPFTFGQGTRLEIKRTVAAPSVFIFPPSDEQLKSGTASVVCLLNNFYPREAKVQWKVDNALQSGNSQESVTEQDSKDSTYSLSSTLTLSKADYEKHKVYACEVTHQGLSSPVTKSFNRGEC
chain: MWELEKDVYVVEVDWTPDAPGETVNLTCDTPEEDDITWTSDQRHGVIGSGKTLTITVKEFLDAGQYTCHKGGETLSHSHLLLHKKENGIWSTEILKNFKNKTFLKCEAPNYSGRFTCSWLVQRNMDLKFNIKSSSSSPDSRAVTCGMASLSAEKVTLDQRDYEKYSVSCQEDVTCPTAEETLPIELALEARQQNKYENYSTSFFIRDIIKPDPPKNLQMKPLKNSQVEVSWEYPDSWSTPHSYFSLKFFVRIQRKKEKMKETEEGCNQKGAFLVEKTSTEVQCKGGNVCVQAQDRYYNSSCSKWACVPCRVRS
notes: IgG1; 3F2-mIL12-3A with mIFNa4 linked to each heavy chain C-terminus
Turning to B5, in assay [4], the Kd is 56500 pM, the koff was found to be 0.00299 s⁻¹ and the kon was 52900 M⁻¹ s⁻¹. In assay [3], the Kd was determined as 396 pM, the koff turned out to be 0.000922 s⁻¹ and the kon is 2.33e+06 M⁻¹ s⁻¹.

B6: M7824 (antibody, human IgG1, lambda)
heavy: not shown
light: QSALTQPASVSGSPGQSITISCTGTSSDVGGYNYVSWYQQHPGKAPKLMIYDVSNRPSGVSNRFSGSKSGNTASLTISGLQAEDEADYYCSSYTSSSTRVFGTGTKVTVLGQPKANPTVTLFPPSSEELQANKATLVCLISDFYPGAVTVAWKADGSPVKAGVETTKPSKQSNNKYAASSYLSLTPEQWKSHRSYSCQVTHEGSTVEKTVAPTECS
notes: Extracellular domain of TGFbR2 linked at the C terminal of the Fc of the anti-PDL1 antibody; also called bifunctional anti-PD-L1/TGFβ Trap fusion protein
Take B6: in the assay with TGFb1, the Kd turned out to be 83000 pM, the koff is 0.00852 s⁻¹ and the kon stood at 103000 M⁻¹ s⁻¹.
